We go through 3 molecules from patent US20250049970A1, “DLL3 TARGETING PEPTIDES AND CONSTRUCTS THEREOF” (MARIANA ONCOLOGY INC., priority 2023, published 2025).

What is called Kd is the concentration at which binding is half-saturated. High values mean a looser complex, low ones a tighter complex.

In test [1] the target is T1, DLL3 (Homo sapiens, UniProt Q9NYJ7).
T1 sequence (Q9NYJ7 27-618): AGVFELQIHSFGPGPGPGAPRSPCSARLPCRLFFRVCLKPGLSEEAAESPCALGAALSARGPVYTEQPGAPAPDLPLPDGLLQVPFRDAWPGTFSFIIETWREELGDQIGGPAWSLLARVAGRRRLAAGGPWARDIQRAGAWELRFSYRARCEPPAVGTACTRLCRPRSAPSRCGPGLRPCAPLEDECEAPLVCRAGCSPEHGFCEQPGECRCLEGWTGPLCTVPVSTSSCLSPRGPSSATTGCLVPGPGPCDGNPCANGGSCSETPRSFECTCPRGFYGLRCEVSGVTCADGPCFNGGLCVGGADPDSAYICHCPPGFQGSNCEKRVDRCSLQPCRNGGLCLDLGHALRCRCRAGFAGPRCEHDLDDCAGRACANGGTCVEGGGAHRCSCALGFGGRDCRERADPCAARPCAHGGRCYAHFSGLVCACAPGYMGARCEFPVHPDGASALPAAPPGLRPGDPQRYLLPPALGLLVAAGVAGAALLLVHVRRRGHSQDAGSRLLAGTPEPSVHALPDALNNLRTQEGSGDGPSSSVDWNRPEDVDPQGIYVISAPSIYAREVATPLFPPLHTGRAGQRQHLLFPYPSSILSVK
In words: SPR binding affinity of cyclic peptides (SEQ ID NOs), SA sensor chip, Biacore S200. The following applies: 25° C., 1:1 binding model. The method, then: The binding affinity and binding kinetic parameters at 25° C. were determined using Biacore S200 instrument. Target ligand was immobilized on a SA sensor chip via streptavidin capture. A reference surface was set up for nonspecific binding and refractive index changes. For analysis of the kinetics of interactions, varying concentrations of peptides were injected at a flow rate of 50 μL/minute using running buffer containing 20 mM phosphate buffer with 2.7 mM KCl, 137 mM NaCl and 0.05% Surfactant P20. Sensorgram curves were fitted with 1:1 binding model, and affinity and kinetic parameters were obtained using either Biacore S200 evaluation software 1.1.1 or Biacore Insight evaluation 4.0.
Background: In SPR one partner is held on a chip, and binding of the other changes the refractive index at the surface.

The target in test [2] is T2, DLL3 on SHP-77 cells (human, UniProt Q9NYJ7 27-618).
T2 construct: SHP-77 cells are human-derived, non-engineered SCLC cells
T2 sequence: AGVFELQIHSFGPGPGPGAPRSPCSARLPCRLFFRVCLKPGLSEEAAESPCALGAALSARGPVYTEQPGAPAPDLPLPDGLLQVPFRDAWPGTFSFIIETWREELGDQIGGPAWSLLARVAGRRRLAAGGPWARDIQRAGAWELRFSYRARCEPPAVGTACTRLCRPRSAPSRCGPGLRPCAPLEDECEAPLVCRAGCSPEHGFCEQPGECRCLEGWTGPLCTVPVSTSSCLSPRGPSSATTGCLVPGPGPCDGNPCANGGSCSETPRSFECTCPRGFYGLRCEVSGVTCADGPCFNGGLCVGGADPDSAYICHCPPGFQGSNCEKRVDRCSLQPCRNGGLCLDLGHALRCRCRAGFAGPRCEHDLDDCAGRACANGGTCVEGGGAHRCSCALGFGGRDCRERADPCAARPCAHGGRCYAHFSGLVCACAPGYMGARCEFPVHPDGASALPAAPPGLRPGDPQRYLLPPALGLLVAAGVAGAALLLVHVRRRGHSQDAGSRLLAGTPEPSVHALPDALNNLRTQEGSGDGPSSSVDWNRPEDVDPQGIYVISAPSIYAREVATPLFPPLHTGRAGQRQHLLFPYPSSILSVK
In words: [177Lu]Lu-labelled peptide on SHP-77 cells, 1 h 37 C, gamma counter; B = 25<%<=50.

The target in test [3] is T3, Biotinylated target ligand human DLL3 (human, UniProt Q9NYJ7 27-492, limits assumed, biotinylated (site not stated)).
T3 sequence: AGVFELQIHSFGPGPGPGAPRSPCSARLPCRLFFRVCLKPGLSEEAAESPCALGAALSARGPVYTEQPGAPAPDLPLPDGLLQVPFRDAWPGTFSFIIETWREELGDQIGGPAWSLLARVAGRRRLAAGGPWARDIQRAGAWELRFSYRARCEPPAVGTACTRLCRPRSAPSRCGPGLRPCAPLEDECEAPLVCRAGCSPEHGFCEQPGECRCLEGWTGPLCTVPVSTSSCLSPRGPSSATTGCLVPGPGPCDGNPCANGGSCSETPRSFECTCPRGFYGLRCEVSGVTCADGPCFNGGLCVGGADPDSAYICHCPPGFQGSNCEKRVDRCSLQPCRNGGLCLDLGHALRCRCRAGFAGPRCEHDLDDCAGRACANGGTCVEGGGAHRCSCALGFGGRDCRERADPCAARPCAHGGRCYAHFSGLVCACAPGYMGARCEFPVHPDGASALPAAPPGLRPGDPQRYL
As to the kind of experiment: SPR, biotinylated human DLL3 on streptavidin chip; A = KD<=1.0 nM. The method, then:
(§1) Biotinylated target ligand human DLL3 was immobilized on a streptavidin sensor chip. A reference surface was set up for nonspecific binding and refractive index changes. For analysis of the kinetics of interactions, varying concentrations of samples were injected at a flow rate of 100 μL/minute using running buffer containing 20 mM phosphate buffer with 2.7 mM KCl, 137 mM NaCl, 0.05% Surfactant P20 and 2% DMSO. Sensorgram curves were fitted with 1:1 binding model, and affinity and kinetic parameters were obtained using Biacore Insight evaluation 4.0. software.

The target in test [4] is DLL3 on CT26.DLL3 cells (Homo sapiens (Human)) (UniProt Q9NYJ7). As to the kind of experiment: [177Lu]Lu-labelled peptide on CT26.DLL3 cells, 1 h 37 C, gamma counter; A = %<=25.
Test [5] has as its target T3, Biotinylated target ligand human DLL3. In words: SPR, biotinylated human DLL3 on streptavidin chip; B = 1.0 nM<KD<=10 nM; lower limit of grade B. The procedure:
as §1

Test [6] has the same target. In words: SPR, biotinylated human DLL3 on streptavidin chip; B = 1.0 nM<KD<=10 nM; upper limit of grade B. The method, then:
as §1

“And” between values parts separate entries of the source, which are not always exact repeats. Equal entries are not always repeated. *1 amine or outer side, *2 acyl side, *3 side chain or, on linkers, in order; H or OH if unused. Where a SMILES comes first, the peptide text is derived from it. Bridges are numbered along the chain shown (N, C = ends). [ ]: non-standard residue; d: D form. The star is where a group is joined. Ala(piperidin-4-yl) = O=C([C@H](CC1CCN([*:3])CC1)N[*:1])[*:2]; DOTA = O=C(O)CN1CCN(CC(=O)O)CCN(CC(=O)*)CCN(CC(=O)O)CC1; 2Nal = N[C@@H](Cc1ccc2ccccc2c1)C(=O)O; aIle = CC[C@@H](C)[C@H](N)C(=O)O A value given as a limit tells only on which side of the number the result lay.

The molecule `CC[C@H](C)[C@H](NC(=O)[C@@H](NC(=O)[C@H](Cc1c[nH]c2ccccc12)NC(=O)[C@H](CCSC)NC(C)=O)[C@@H](C)O)C(=O)N[C@H]1CSSC[C@@H](C(=O)N[C@@H](Cc2c[nH]c3ccccc23)C(=O)N[C@H](C)C(N)=O)NC(=O)[C@H](CC(=O)O)NC(=O)[C@H](Cc2cnc[nH]2)NC(=O)[C@H](Cc2c[nH]c3ccccc23)NC(=O)[C@H](CC(N)=O)NC(=O)[C@H](CC(N)=O)NC1=O` [compound 85] (Ac-MWTICNNWHDCW[dA]-NH2; disulfide 5-11) gave a Kd in test [1] of 150 nM.

Ac-WT[aIle]C[Ala(piperidin-4-yl)]N[2Nal]K(DOTA)DCWP-NH2 (disulfide 4-10) [Cpd No. 303]: the % Binding in test [2] was > 25% and < 50%; in test [4], less than 25%. This molecule yielded a dissociation constant (Kd) in test [3] of less than 1 nM.

Ac-MWTICNNWHDCWP-NH2 (disulfide 5-11) [Cpd No. 1]: the equilibrium dissociation constant (Kd) in test [5] is greater than 1 nM; in test [6], no more than 10 nM.
